Test results from EP3583122A1 (dated 2019).
Changes are numbered by the printed parent chain. Names and notes keep the numbering of the source.

B1: PE-87 H100A (antibody, V domains shown)
VH: QVQLVQSGVTLVQPGGSLRVSCAASGFTFSSYAMSWVRQAPGKGLEWVSAISGLGGSTYYADSVKGRFTISRDNSKNTLYLQMNSLRAEDTAVYYCAKDARVWAAGYHFDYWGQGALVTVSS
VL: DIVLTQSPSTLSASVGDRVTITCRASQSISSWLAWYQQKPGEAPKLLISDASSLESGVPSRFSGSGSGTEFTLTISSLQPDDFATYYCQQYYSSPTFGGGTKVEIK
B2: PE-87 R101A (antibody, V domains shown)
VH: B1 VH with A100H, R101A
VL: B1 VL
B3: PE-87 F109A (antibody, V domains shown)
VH: B1 VH with A100H, F109A
VL: B1 VL
B4: PE-87 D99A (antibody, V domains shown)
VH: B1 VH with D99A, A100H
VL: B1 VL
B5: PE-87 Y107A (antibody, V domains shown)
VH: B1 VH with A100H, Y107A
VL: B1 VL
B6: PE-87 Y111A (antibody, V domains shown)
VH: B1 VH with A100H, Y111A
VL: B1 VL
B7: PE-87 G106A (antibody, V domains shown)
VH: B1 VH with A100H, G106A
VL: B1 VL
B8: PE-87 D110A (antibody, V domains shown)
VH: B1 VH with A100H, D110A
VL: B1 VL
B9: PE-87 H108A (antibody, V domains shown)
VH: B1 VH with A100H, H108A
VL: B1 VL
B10: PE-87 V102A (antibody, V domains shown)
VH: B1 VH with A100H, V102A
VL: B1 VL
B11: PE-87 W103A (antibody, V domains shown)
VH: B1 VH with A100H, W103A
VL: B1 VL
B12: mAb PE-87 (antibody, V domains shown)
VH: B1 VH with A100H
VL: B1 VL

target: T1, EBOV GP on rVSV particles (Ebola virus (EBOV), UniProt Q05320 33-676); assay: cell-based or functional assay
T1 sequence: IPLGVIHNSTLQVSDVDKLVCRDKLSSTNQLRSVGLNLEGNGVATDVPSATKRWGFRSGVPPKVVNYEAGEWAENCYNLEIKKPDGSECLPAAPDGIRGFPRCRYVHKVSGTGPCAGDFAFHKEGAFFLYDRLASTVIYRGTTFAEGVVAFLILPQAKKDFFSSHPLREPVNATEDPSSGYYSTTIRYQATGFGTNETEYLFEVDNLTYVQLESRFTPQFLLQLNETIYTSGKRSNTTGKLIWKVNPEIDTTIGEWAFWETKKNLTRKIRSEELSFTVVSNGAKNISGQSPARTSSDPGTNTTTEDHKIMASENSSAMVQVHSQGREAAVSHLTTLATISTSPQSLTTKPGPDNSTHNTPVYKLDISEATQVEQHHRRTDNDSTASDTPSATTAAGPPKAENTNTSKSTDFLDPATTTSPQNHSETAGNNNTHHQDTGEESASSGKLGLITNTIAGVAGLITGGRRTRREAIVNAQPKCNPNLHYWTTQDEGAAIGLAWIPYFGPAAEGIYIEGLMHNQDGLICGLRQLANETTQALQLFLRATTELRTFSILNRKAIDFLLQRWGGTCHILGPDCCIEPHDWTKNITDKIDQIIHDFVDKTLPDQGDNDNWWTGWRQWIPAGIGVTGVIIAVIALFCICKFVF

Binder	IC50, half-maximal neutralization of viral infectivity (rVSV-GP) [nM]
B1	1
B2	3.2
B3	4.2
B4	> 500
B5	3
B6	0.8
B7	0.8
B8	2
B9	3.2
B10	0.6

target: BDBV GP on rVSV particles (Bundibugyo virus (BDBV)); assay: cell-based or functional assay

Binder	IC50, half-maximal neutralization of viral infectivity (rVSV-GP) [nM]
B1	0.4
B2	0.4
B3	0.3
B5	0.8
B6	0.4
B11	> 200
B7	0.4
B8	0.9
B9	0.6
B10	0.2

target: T2, TAFV GP on VSV pseudotype particles (Tai Forest virus (TAFV), UniProt Q66810 33-676); assay: cell-based or functional assay
T2 sequence: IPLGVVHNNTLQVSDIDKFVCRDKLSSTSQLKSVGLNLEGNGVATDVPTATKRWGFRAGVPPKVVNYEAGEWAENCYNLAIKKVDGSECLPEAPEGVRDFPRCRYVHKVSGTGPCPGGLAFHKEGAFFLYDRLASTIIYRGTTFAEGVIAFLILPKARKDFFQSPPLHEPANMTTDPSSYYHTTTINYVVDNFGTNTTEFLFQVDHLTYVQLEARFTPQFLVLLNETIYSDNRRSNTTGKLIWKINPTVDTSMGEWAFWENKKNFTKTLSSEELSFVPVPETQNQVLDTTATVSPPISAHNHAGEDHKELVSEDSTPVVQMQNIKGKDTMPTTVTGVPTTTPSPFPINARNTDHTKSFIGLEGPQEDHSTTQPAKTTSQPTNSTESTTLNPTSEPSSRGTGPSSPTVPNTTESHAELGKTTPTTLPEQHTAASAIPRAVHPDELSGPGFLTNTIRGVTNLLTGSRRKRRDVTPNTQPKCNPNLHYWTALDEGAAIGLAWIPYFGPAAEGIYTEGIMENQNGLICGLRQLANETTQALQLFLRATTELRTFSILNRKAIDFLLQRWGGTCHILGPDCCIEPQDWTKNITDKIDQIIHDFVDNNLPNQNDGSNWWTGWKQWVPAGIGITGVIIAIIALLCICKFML

Binder	IC50, half-maximal neutralization of viral infectivity (rVSV-GP) [nM]
B1	0.8
B2	1.9
B3	2.8
B4	> 350
B5	0.8
B6	1.1
B11	> 150
B7	0.8
B8	2.1
B9	2.2
B10	1

target: T3, SUDV GP on rVSV particles (Sudan virus (SUDV), UniProt Q66814 33-676); assay: cell-based or functional assay
T3 sequence: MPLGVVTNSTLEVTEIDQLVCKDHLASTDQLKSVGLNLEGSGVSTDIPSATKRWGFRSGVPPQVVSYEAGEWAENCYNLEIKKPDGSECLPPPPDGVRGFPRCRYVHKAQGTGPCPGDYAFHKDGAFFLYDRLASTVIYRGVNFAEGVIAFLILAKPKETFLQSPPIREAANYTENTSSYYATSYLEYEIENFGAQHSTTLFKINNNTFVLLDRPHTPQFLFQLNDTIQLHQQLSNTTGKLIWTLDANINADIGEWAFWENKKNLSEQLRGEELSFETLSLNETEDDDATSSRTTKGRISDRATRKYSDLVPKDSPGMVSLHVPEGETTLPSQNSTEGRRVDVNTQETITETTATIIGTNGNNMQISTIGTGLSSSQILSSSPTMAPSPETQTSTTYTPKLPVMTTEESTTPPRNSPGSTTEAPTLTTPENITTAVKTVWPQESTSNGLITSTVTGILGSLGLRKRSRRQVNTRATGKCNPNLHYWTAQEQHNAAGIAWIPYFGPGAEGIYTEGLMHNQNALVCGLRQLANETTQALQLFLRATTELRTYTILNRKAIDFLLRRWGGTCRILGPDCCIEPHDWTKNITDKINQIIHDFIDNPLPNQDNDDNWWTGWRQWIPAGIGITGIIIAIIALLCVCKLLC

Binder	IC50, half-maximal neutralization of viral infectivity (rVSV-GP) [nM]
B1	1
B2	1.5
B3	2.1
B5	> 350
B6	0.8
B7	0.9
B8	1.5
B9	2.1
B10	1.1

target: T4, RESTV GP on rVSV particles (Reston virus (RESTV), UniProt Q66799 34-677); assay: cell-based or functional assay
T4 sequence: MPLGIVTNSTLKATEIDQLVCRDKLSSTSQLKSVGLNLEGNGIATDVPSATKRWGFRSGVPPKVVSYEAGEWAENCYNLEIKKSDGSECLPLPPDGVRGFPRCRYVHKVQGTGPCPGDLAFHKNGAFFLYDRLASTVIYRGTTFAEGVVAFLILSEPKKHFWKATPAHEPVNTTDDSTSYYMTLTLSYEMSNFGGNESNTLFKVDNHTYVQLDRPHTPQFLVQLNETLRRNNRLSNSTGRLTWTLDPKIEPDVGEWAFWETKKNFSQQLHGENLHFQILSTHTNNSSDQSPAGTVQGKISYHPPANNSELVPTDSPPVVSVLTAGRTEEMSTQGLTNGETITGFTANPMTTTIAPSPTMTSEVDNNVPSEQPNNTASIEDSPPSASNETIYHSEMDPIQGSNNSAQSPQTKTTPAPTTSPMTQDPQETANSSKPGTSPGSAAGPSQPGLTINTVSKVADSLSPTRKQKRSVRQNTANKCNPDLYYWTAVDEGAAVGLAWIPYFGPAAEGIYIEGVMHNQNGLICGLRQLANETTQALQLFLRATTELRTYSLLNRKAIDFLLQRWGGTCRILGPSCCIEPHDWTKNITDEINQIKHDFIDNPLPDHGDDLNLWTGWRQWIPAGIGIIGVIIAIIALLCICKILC

Binder	IC50, half-maximal neutralization of viral infectivity (rVSV-GP) [nM]
B1	0.2
B2	0.2
B3	0.4
B5	1.3
B6	0.1
B7	0.2
B8	0.4
B9	0.5
B10	0.2

target: EBOV GPCL (cleaved soluble EBOV GP) (Ebola virus (EBOV), UniProt Q05320 33-650); assay: BLI (OctetRed), IgG on anti-human Fc sensors, GPCL in solution, 1:1 fit

Binder	Kd [nM]
B12	< 0.001
